Earlier results as cited in PMC5481609.

Molecular target: IL-23 p19 (Homo sapiens) (UniProt Q9NPF7)
Sequence (Q9NPF7 20-189, chain 1 of 2): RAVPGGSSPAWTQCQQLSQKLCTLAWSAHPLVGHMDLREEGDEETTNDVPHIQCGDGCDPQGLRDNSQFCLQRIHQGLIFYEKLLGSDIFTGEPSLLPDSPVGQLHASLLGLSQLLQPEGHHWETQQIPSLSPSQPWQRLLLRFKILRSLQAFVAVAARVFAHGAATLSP
Sequence (P29460 23-328, chain 2 of 2, further chain): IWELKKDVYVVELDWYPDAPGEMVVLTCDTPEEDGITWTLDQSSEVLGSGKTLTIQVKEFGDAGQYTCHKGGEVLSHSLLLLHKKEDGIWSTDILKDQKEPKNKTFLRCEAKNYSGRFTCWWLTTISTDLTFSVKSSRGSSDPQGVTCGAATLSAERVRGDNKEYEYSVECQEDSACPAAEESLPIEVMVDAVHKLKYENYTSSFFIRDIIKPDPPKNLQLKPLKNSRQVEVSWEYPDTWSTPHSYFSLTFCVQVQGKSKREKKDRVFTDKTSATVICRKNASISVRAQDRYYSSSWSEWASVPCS

Kd: 0.138 nM
Substance: brazikumab
